The Kd is the concentration at which binding is half-saturated.

Assay [1] concerns MCF10A cells. As to the kind of experiment: Immunoblot of Hippo pathway phosphorylation after latrunculin B treatment. Type of assay: cell-based, human. As to conditions: LatB 1 μg/ml, 1 hr. The protocol: 293FT cells (Thermo Scientific, catalogue #R70007; not independently authenticated) were cultured in DMEM supplemented with 10% fetal bovine serum, 2 mM L-glutamine and 1% penicillin/streptomycin. MCF10A cells (ATCC, catalogue #CRL-10317; not independently authenticated) were cultured in DMEM/F12 containing 5% horse serum, 20 ng/ml EGF, 0.5 μg/ml hydrocortisone, 100 ng/ml cholera toxin, 10 μg/ml insulin and 1% penicillin/streptomycin. All cells were incubated at 37°C in a humidified 5% CO2 atmosphere. All cell lines were checked by 4’,6-diamidino-2-phenylindole (DAPI) staining to ascertain that they were free of mycoplasma contamination. Transient transfection of 293FT cells was performed with Lipojet (Signagen). Cells were collected for further experiments after 24 hr. siRNA transfection was performed with Lipofectamine RNAiMAX (Invitrogen, Waltham, MA) according to manufacturer’s instructions. The following siRNAs were synthesized by Dharmacon and used in this study: siSLMAP #1, […]dTdT; siSLMAP #2, […]dTdT; siSTRIP1, […]dTdT.
Rabbit polyclonal MST2 phospho-T336 antibody was raised against the MST2 phospho-peptide with the sequence of ESVGpTMRATC at an on-campus facility. Generation of the MST2 phospho-T378 antibody was described previously ([Ni et al., 2015]). […] For immunoblotting, cell lysates and immunoprecipitates were analyzed by standard immunoblotting. The membranes were scanned and band intensities were quantified by the Odyssey Infrared Imaging System (LI-COR). […] We quantified phospho- and total protein bands in a set of three independent experiments. […] The ratios of normalized phospho-proteins versus normalized total proteins were calculated and plotted. […]

Assay [2] concerns MST2. Description: MST2-SAV1 autophosphorylation (pT180). Type of assay: biochemical, human. To be noted: 2.5 µM MST2-SAV1 complex, dephosphorylated by 0.5 µM PP2A A-C, then 5 µM okadaic acid; 2 mM ATP, anti-pT180 blot; at least two independent experiments. On the procedure: For assaying MST2-SAV1 autophosphorylation, 2.5 µM MST2-SAV1-ΔN198 or MST2-SAV1-ΔN268 was dephosphorylated by 0.5 µM PP2A A-C core complex for 30 min at room temperature. Okadaic acid was then added to a final concentration of 5 µM and the reaction mixture was incubated on ice for another 30 min. The reaction mixture was diluted by a ratio of 1:5 at room temperature with a kinase reaction buffer containing 50 mM Tris (pH 7.5), 150 mM NaCl, 5 mM MgCl2, 2 mM ATP, and 1 mM DTT. At different time intervals, autophosphorylation was terminated by adding 2X SDS loading buffer and boiling for 5 min in 100 °C water bath. All samples were separated by SDS-PAGE and blotted by a specific antibody against pT180 of MST2.

Assay [3] deals with MST2 SARAH. Description: In vitro pull-down of 35S-labeled SAV1 SARAH by GST-MST2 SARAH. In kind it is binding, human. To be noted: GST-MST2 SARAH pull-down of in vitro translated 35S-labeled Myc-SAV1 SARAH (residues 321–383), SDS-PAGE, autoradiography. On the procedure: To assay the heterodimerization of SARAH domains between MST2 and SAV1, Myc-tagged SAV1 SARAH (residues 321–383) and the corresponding mutants were in vitro translated in reticulocyte lysate in the presence of ^35S-methionine according to the manufacturer’s protocol (Pierce). Purified GST-MST2 SARAH (residues 430–491) fusion protein was bound to glutathione-Sepharose beads and incubated with ^35S-labeled SAV1 SARAH WT and mutants. The beads were washed three times with TBS containing 0.05% (v/v) Tween. The proteins retained on the beads were analyzed by SDS-PAGE followed by autoradiography.

For assay [4], the target named is T1, SLMAP FHA (residues 1–140) (human, UniProt Q14BN4 1-140).
T1 construct: SLMAP, human, FHA domain, residues 1-140; also called SLMAP FHA domain; apo-SLMAP FHA; source: E. coli BL21 (DE3)-T1R, purified (glutathione-Sepharose, TEV cleavage, Superdex 75); not shown: GST, N-terminal, cleaved
T1 sequence (looked up): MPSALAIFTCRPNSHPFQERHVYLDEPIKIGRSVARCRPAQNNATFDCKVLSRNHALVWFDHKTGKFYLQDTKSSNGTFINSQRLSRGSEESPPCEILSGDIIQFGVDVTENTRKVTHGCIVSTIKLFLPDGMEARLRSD
Description: ITC; MicroCal iTC200, 20 °C; 50 µM protein in the cell titrated with 500 µM phospho-peptide; 20 mM Tris pH 8.0, 50 mM NaCl (5% DMSO for pT325-MST2 320-329); A + B <-> AB model. To be noted: both partners purified. For orientation: In ITC the heat of successive injections is recorded.

Assay [5] has as its target MOB1^33-216 (human) (UniProt Q9H8S9). The assay is described as above.
In assay [6] the target is T2, SLMAP FHA/R32A (human, UniProt Q14BN4 1-140, R32A).
T2 construct: SLMAP, human, FHA domain, residues 1-140, R32A; also called SLMAP FHA/R32A mutant; source: E. coli BL21 (DE3)-T1R, purified (glutathione-Sepharose, TEV cleavage, Superdex 75); not shown: GST, N-terminal, cleaved
T2 sequence (looked up): T1 sequence (looked up) with R32A
The description is as above. To be noted: both partners purified.

Changes are numbered by the printed parent chain. Numbers in names are those of the source. Non-standard residues stand in square brackets, D forms with d. No end group written: not given here. pT = C[C@@H](OP(=O)(O)O)[C@H](N)C(=O)O

As for `C/C1=C/C(=O)O[C@@H]2C[C@@H](CC[C@H](C)/C=C\CC1)O[C@@](O)([C@@H]1CSC(=O)N1)C2` [LatB, Latrunculin B], in assay [1], the “MOB1 T35 phosphorylation” value is on record as “induced”; the “MST1/2 T-loop phosphorylation” value is given as “induced”; the “downstream phosphorylation of LATS1/2 and YAP” value is reported as “induced”.

B1: SAV1 ∆N268: SAV1 SARAH alone (protein, UniProt Q9H4B6 269-383, looked up, fragment)
chain: SVPRYDQPPPVTYQPQQTERNQSLLVPANPYHTAEIPDWLQVYARAPVKYDHILKWELFQLADLDTYQGMLKLLFMKELEQIVKMYEAYRQALLTELENRKQRQQWYAQQHGKNF
For B1, the “MST2 activation (T180 autophosphorylation) in vitro” value in assay [2] is “blocked MST2 activation in vitro”.

B2: SAV1 E346A: SAV1 SARAH (residues 321–383) mutant (protein)
chain: ILKWELFQLADLDTYQGMLKLLFMKALEQIVKMYEAYRQALLTELENRKQRQQWYAQQHGKNF
modifications: not fully specified (N-terminus); also: 35S-methionine labelled, Myc tag, end not given here
notes: SAV1 SARAH (residues 321–383) mutant
As for B2, the “binding of SAV1 SARAH mutant to MST2” value in assay [3] was “completely lost the binding to MST2”.

B3: Y357A: SAV1 SARAH (residues 321–383) mutant (protein, UniProt Q9H4B6 321-383, looked up, variant Y357A)
chain: B2 chain with A26E, Y37A
modifications: SARAH domain
notes: as for B2
On to B3, for which, in assay [3], the “binding of SAV1 SARAH mutant to MST2” value is reported as “completely lost the binding to MST2”.

B4: I350A: SAV1 SARAH (residues 321–383) mutant (protein, UniProt Q9H4B6 321-383, looked up, variant I350A)
chain: B2 chain with A26E, I30A
modifications: SARAH domain
notes: as for B2
Turning to B4, the “binding of SAV1 SARAH mutant to MST2” value in assay [3] is listed as “completely lost the binding to MST2”.

B5: L365A: SAV1 SARAH (residues 321–383) mutant (protein, UniProt Q9H4B6 321-383, looked up, variant L365A)
chain: B2 chain with A26E, L45A
modifications: SARAH domain
notes: as for B2
For the molecule B5, the “binding of SAV1 SARAH mutant to MST2” value in assay [3] is listed as “completely lost the binding to MST2”.

B6: L361A: SAV1 SARAH (residues 321–383) mutant (protein, UniProt Q9H4B6 321-383, looked up, variant L361A)
chain: B2 chain with A26E, L41A
modifications: SARAH domain
notes: as for B2
Consider B6, for which the “binding of SAV1 SARAH mutant to MST2” value in assay [3] is listed as “completely lost the binding to MST2”.

B7: R368A: SAV1 SARAH (residues 321–383) mutant (protein, UniProt Q9H4B6 321-383, looked up, variant R368A)
chain: B2 chain with A26E, R48A
modifications: SARAH domain
notes: as for B2
With B7, the “binding of SAV1 SARAH mutant to MST2” value in assay [3] is given as “completely lost the binding to MST2”.

B8: pT336-MST2^331-340 (peptide)
peptide: VESVG[pT]MRAT
notes: MST2, human, linker residues 331-340; source: synthetic peptide
For B8, in assay [4], the equilibrium dissociation constant (Kd) is 1140 nM and the dH was -8.2 kcal/mol.

B9: pT378-MST2^371-401 (peptide)
peptide: DEEEEDG[pT]MKRNATSPQVQRPSFMDYFDKQD
notes: MST2, human, linker residues 371-401; source: synthetic peptide
For B9, the dH in assay [5] was -13.5 kcal/mol. In addition, in assay [4], the Kd stood at 393 nM and the dH was -9.5 kcal/mol.

B10: pT378-MST2^373-382 (peptide)
peptide: EEEDG[pT]MKRN
notes: MST2, human, linker residues 373-382; also called pMST2; source: synthetic peptide
In the case of B10, the dH was -4 kcal/mol in assay [5], -9 kcal/mol in assay [4] and -6.7 kcal/mol in assay [6]. In addition, the figures for the equilibrium dissociation constant (Kd) in assay [4] and in assay [6] were 160 nM and 18800 nM, respectively.

B11: pT325-MST2^320-329 (peptide)
peptide: ELDSH[pT]MVKT
notes: MST2, human, linker residues 320-329; source: synthetic peptide
With B11, in assay [4], the Kd was 392 nM and the dH is -10.3 kcal/mol.
